# Experimental data taken from US9381164B2, “Silk nanospheres and microspheres and methods of making same” (TRUSTEES OF TUFTS COLLEGE, priority 2009, dated 2016).
# Counter-ions that a name gives are not always drawn. Like-named read-outs stand apart in the source and are kept apart here.
# Legend:
# [1] = Drug loading in silk spheres (supernatant absorbance at 555 nm); type: physicochemical; conditions: drug/silk 1:100; spheres from 1.0% silk/4.0% PVA blend
# Description: Tetramethylrhodamine conjugated bovine serum albumin (TMR-BSA, M.w.=66,000 Da), tetramethylrhodamine conjugated dextran (TMR-Dextran, M.w.=10,000 Da), and rhodamine B (RhB, M.w.=479 Da) were used as model drugs to study the drug loading in silk nano- and micro spheres. Stock solutions of drugs were prepared with a concentration of 5 mg/ml in PBS buffer, pH 7.4, and stored at −20° C. Certain amount of stock solution of drugs was added to silk fibroin solution, before the silk fibroin solution was prepared into silk nano- and micro spheres, to reach to a drug/silk ratio of 1:100 (weight ratio). After mixing, the drug loaded silk fibroin solution was used to blend with PVA solution following the steps described in the Example 2, without the sonication treatment. A 5 wt % of silk and PVA concentrations and a silk/PVA ratio of 1:4 were used in this example. At this concentration, the silk/PVA film with a silk/PVA ratio of 1/4 can generate silk spheres with narrower size distribution, perhaps because the blend film is easier to dissolve in water forming homogeneous sphere suspension.
# To determine the amount of drug loading in silk spheres, the supernatants collected from the centrifugation steps were subjected to absorbance measurement at 555 nm. The amount of drug was calculated based on a standard curve obtained at the same condition. The amount of drug in silk spheres was calculated from the difference between the total amount used and the amount remained in the supernatants. For each drug loading, at least three samples were prepared in order to obtain a standard deviation. The pellets from the last step of centrifugation were suspended in 2 ml of PBS buffer, pH 7.4, and used for the following confocal microscopy and drug release studies in Example 6.
# [2] = Cumulative drug release from silk spheres in PBS; type: physicochemical; conditions: for In vitro drug release: Microspheres, PVA blend film
# Description: Silk spheres loaded with model drugs as described in Example 5 were lyophilized. 10 mg of lyophilized silk spheres were suspended in 1 ml of PBS buffer, pH 7.4. The samples were incubated at room temperature under slow shaking condition. A cumulative drug release profile at each different time point (1, 4, 8.5, 24, 48, 120, 192, 342 hr) was determined by following the steps of (a) centrifuging the samples at 12,000 rpm for 10 min with a Sigma ISS-113 microcentrifuge (Sigma Chemical Co., St. Louis, Mo.); (b) carefully transferring the supernatants to empty tubes, subjecting the collected supernatants to the absorbance measurement at a wavelength of 555 nm, calculating the amount of model drug based on a standard curve, and comparing the data at the current time point with the original amounted drug loaded in the spheres; (c) suspending the precipitated pellets in 1 ml of PBS buffer; and (d) repeating the steps of (a)-(c) at each time point to obtain a cumulative drug release profile. For each model drug, at least three samples were prepared in order to obtain a standard deviation.
# [3] = cited from earlier work
# [4] = Microspheres, Vibrational splitting of laminar jet
In vitro drug release [2],Molecule,loading efficiency [1],"In vitro drug release [3, 4]",other results
,Cn1c(=O)c2[nH]cnc2n(C)c1=O [theophylline],,,"In vitro drug release ([3]; Layer-by-layer coatings, Coat drug tablet): >0.33 days"
,CC(C)NCC(O)COc1cccc2ccccc12 (centres unmarked) [propranolol hydrochloride],,20 days,
,IGF-I: insulin like growth factor loaded in silk delivery systems,,>7 weeks,"In vitro drug release ([3]; Porous sponge, Drug encapsulated): >4 weeks"
,O=C(O)c1ccccc1O [Salicylic acid],,1 days,
>4 weeks,"CCN(CC)c1ccc2c(-c3ccccc3C(=O)O)c3ccc(=[N+](CC)CC)cc-3oc2c1.[Cl-] [RhB, rhodamine B]",approximately 95%,,"initial burst release ([2]; PBS pH 7.4, room temperature): about 1%"
7 days,Dextran,,,
,tetramethylrhodamine conjugated dextran [TMR-dextran],approximately 1.2%,,"total loading released within 2 weeks ([2]; PBS pH 7.4, room temperature, within 2 weeks): more than 60%"

Molecule,In vitro drug release [2],loading efficiency [1],"In vitro drug release [3, 4]",other results
Tetramethylrhodamine conjugated bovine serum albumin [TMR-BSA],>4 weeks,about 51%,,"initial burst release ([2]; PBS pH 7.4, room temperature): about 1%"
